# In the domain aggregation screens of Martell et al. (2025):
# Test: soluble fraction after stress (log2 fold change); higher = more stays soluble; pooled small domains, quantitative proteomics
# Conditions: stress: 75 degC
# 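Also: 20 min heating vs room temperature control held 20 min.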
row,Sequence,soluble fraction (log2)
1,HMGTAVKAPMPGTILKVNVTAGQSVKAGDIMFILEAMKMENEIVAPSDGTVSQVVAAKGSSVATDDVLAYL,-0.586
2,HMGTDGLKDIVLEILKEHPNQLAELIDGKQKVLGFLVGQVMKKTNGAANPKEVNEIIQGEIKK,0.179
3,HMGTELSYSEFLNKVEAGEVTNVTIRGPEITFQTGNSSYTTYAPDDPKLIEHLTAKGVAIKAGP,0.608
4,HMGTGELLVHVIGAVHSPGVVRLPTGARVVDAIDAAGGAREDAQTEQLNLARLVDDGEQVRVPVVGESVD,0.081
5,HMGTGIKQVNVVSVIGQDEETAKTTLTNLGLKVNVTYATSTSDNGKVTKQSIDAGKTVDEGTSVTITVNKV,≥ 1.04
6,HMGTHSAEQVRAAIRAIVAAEDAANPLSDARITELLAMRGIAAARRTVMKYREQLGIPSSAKRRR,-1.94
7,HMGTHVVQEGEYLDLIIEKTIPGSPIRKDLLRKAFVKLNPSAFGGRGNPNYIFARKKLKVPSVEDLKAVIF,0.127
8,HMGTIEEYSKYLINQYFDSLKKPMDAMTTSEKIEIVKSLDKKGIFNLKGSVGELAKRFNTSEKTIYRYLSS,-0.202
9,HMGTKRWELPRRVQQMATQHGKSISTAAAEELVSRSGENTRMLDNDLVKLAQMVEAPQIELADVERWIVR,0.207
10,HMGTLPSLAPSGEKTVRLPNLAGWSLRETMEILQKGGLQLLPIGSGISFKQSPPPGTTLNEGDAVTVWF,0.00884
11,HMGTNTTGWIKIADDWKYIDSNGEYTVNDWRQSADGGWYYLGYNGNMLKNQTTPDGYYVDAEGLWDGMSPA,-0.54
12,HMGTPEQVVVSSVLKETNEIVLKWPADGFMAKYKMDNLNLNFEPVHGQGVMGYFIGSRLIKLELV,-1.43
13,HMGTPSAEELAFSAQKGNAVMRIMEIREKYIENGGQISDEERNEIERLIAIYYPKASIFDYLPMMG,-0.367
14,HMGTSFEDIDRAVKSVRKPETDEAEKLHAGKTFKDIAETELFQKLTESFAGISDRVNEVIDLYTARAAE,0.188
15,HMGTSSAEIAAELRAQIFAGELRPGEMLPSAREITGTWNVAIATASRVHALLRSEGLATPVPGVGTVVAT,0.223
16,HMGTTAWISTKTANGSVNIRTGPGTGYGVIGWALNGDKLEVLSRGTSWHYVKLVKNGKIGYVSASYVSFTQ,-3.41
17,HMGTTKGVVDVTVPNGRASQHVKLVVIDDDGGRVVYDGTNAPGDRIVKSVSGSGNVRVQIYLNNALVQEQS,-0.491
18,HMGTTMLEVPNFVGEVFKEIDPEKYPNLRLVDSDYTYSNEYEAGKVISQDPVARTQVAEGSTVKLVIS,0.319
19,HMGTVISVDKARSIALAKVPGASANDIRIHLDRDDGRQIYEGEIYYNRMEYEFEIDASTGTIIEWSAEHW,-2.33
20,HMGTVQSVDRALLLLSEIGREPGGLVDLSTRVRLATSTTGRILATLEHAGAVVRGDDGIYHIGPLVHGMVS,-2.04
21,HMGTYSKQDLLQLIGRYPDGIGKREINLAFSKGTKIRNLLNIELNELLNERLITLSQGGLYIKP,-1.92
22,HMGVAFAPVEKIKHTKTGNELYAVKLAGRVEAEVFGQLRQKAKEYDGYYSKFSRAFLFSTPEDAEAFRAE,-0.294
23,HMGVDIAEHDGQPAVSIRKGAAESVAQWVKDQGGTFPQEVEMTVQNVARAGGTPLVVARGRDVLGVIYLKD,-0.0119
24,HMGVDKLTPREREVLALMAQGASNREIEGKLVLTAGAVSKHVANVFMKLGFSPEDENRRVKAVLAWLRTK,-2.86
25,HMGVGIEALAVEVDRIRQVLTGGGALSDIQLFSQLKALGEVKTALSSMTDPRARELEKRVAQLLEASLRT,-0.708
26,HMGVKHKHKGAGELLAALRTMFPNSSVSTLRKMLTQGRVVLNGEVVHRAKHELTDGDTIEVLERQRAER,0.0384

row,Sequence,soluble fraction (log2)
1,HMGVKIELNENEQAIFAAMQKQVEAVLPDLRAQFADMSNKAWDNSVKTLTKNNLLKVSKEAEILFIRL,-0.939
2,HMGVKTDKYYYQMATETRVNKHYGLSNQYIATLISEYPRSPLIPNASILSKKNNADLALIDQSINQR,-0.515
3,HMGVLSPRQSQILALVAQGLGNREIAERLHIAPTTARDHVQAIMRRLNVNSRAAAAVMGVKLGLI,-1.92
4,HMGVNEGVNKLFKTIQETPGKRMPYYALATDVPEKTIERWLKQLREEGKIEFKGSAKTGGYFVIDK,-0.000624
5,HMGVRDIRIFERNNSFFVNAEIRGEAQLSVPITRTDYQLFKENKIDALSLVEKYYAEELNASNEMK,0.234
6,HMGVSLNELAYRRFKQALVTLSYKPGEYLNTAQVMNDLDMGRTPINQAIHRLANEGLLQVIPRKGVMVS,-2.24
7,HMGVTDLFAVLGFPRSPWLDAEELKQRHHALMADEASANSSPTILNEARRTLQNPALRIRHFLALEFPDH,-0.425
8,HMGVYDLIYLGYGINVEKEELVDQNISIIRRYANIFDPNGDIKGSTNPTYASNTAVLFNEAKFIIDGYD,-3.7
9,HMGWQPDPLTTRERLVAELATQASNAQIAEQLHLSVRTVEGHLAHVYTKLGITTRRELPAALAGAR,-1.55
10,HMGWTTPAGIAVGMDKSVLQDAYGKEDDTFQDKGILYYQYFVHPSRMSGLSFGIKNDKIVSITAYMD,-2.02
11,HMGYDDLEPFDANGRLRWSDQELVLAFGRHRGATLRTLELNDPSYLRWLLSGNGPLEQQDIQRLEQILES,-1.55
12,HMGYDLLFQQALGFHEQGRLNEAENIYRQILETAPNNPDILNLLGLIAQQKGLHAQAVDYFYQAIRL,-1.89
13,HMGYDVAEVKFRLIKLLRDSKIGISGVEISERLGINRVTMTKYLNIFSAEGVIGEKNIGNVNLWFVYEGIE,-1.62
14,HMGYQLSLEAQSQLKALGLTSEYITRILDEADNRQPIPGTSRTVYSLNGYQVEFSHSDQQVIRIARG,-1.14
15,HMGYSDEIGEFIKKLRTENHLTQKEFADKYGVTYQAVSKWENGKNLPDMSLIKQMSEDFNIGIDELLDGEK,-0.00865
16,HMGYTLDVAHGVTEDMNFSEAFATAREEVGPGGIFYWHGKPYGTYYENEWNAMDEEDKAEYWDAVGRTTA,0.0888
17,HMHANSDVEQLMQMGIQRLNFQRYSDALLIFNQIIENFPDYAEAWNKRATLHYLLGNLDKSIADIEQTLE,-2.45
18,HMHAPIAELKKVFKEEFADQEVTVRQLAGSVLLSGNVKTAELRENLESVAKQFFPRVINNLKLI,-0.444
19,HMHDAKAEIIRLSALLTEYQRSYYIDGHSQVSDLEYDRLFDRLVALETSHPELREADSPTQRV,-0.917
20,HMHDAKTQLQEEAARRGLPAPVYTRIGQEGPDHAPRFRVRADVGPHQAEAVAGSLKLAQAEAARAILRQMP,0.132
21,HMHDITPAVAETFKQLRAERGLSLSQAAQLTGVSKAMLGQIERGQSSPTVSTLWKIATGFNVAFSVFL,-2.56
22,HMHDLGEQIIEKLRASGGISTLTDKSDPDAIYRQFKVSKKKYKQALGTLYKSRRITLAPNQIKLA,-0.293
23,HMHDPLATLTPREHEVMSLMAEGRTNAAIAQALVIGTGAVEKNVTSIFQKLGLDDSGTDHRRVLAVLAWLQ,-2.13
24,HMHDRRSGKVKWYSDRKGYGFIDLDGGEVFIHRSALIAFGALRLQAEDIITITVRETDRGLVVDQLFGIER,-1.66
25,HMHEAILNQIRNEELMLYIGELSDAQQDVILLKYFHQMTFKEIAESFSIPISTVKTRHTAALKKLSTLWK,-0.36
26,HMHESLAEVAARKLRALIVTGELAPGERVTEAGLTDLLEISRTPAREAIRILSSEGLLVVFPNRGAEVV,-0.94

row,Sequence,soluble fraction (log2)
1,HMHEYSDIEHRILDAAREVFIRKGYDSATMGDIALLAGMSRTSVNYYFRNKERLFEAIFEEII,-1.91
2,HMHFDQILAHAMDERGMNAVQLASLTGLSSGAISRYLAGDRQPTVYSIQQIAKALGVSADYLVG,-1.19
3,HMHGEAEFLDATAVVMEKLNPGGLVKIKGEIWQAVSKDGHTIQEGEKVRVFERQGITLLVGHF,-0.876
4,HMHGTIHSAAYGGDIEAVKKFLAAGADVNANGGGRTPLDLAIQVKNTEIADLLRKHGGKTGDELKA,0.547
5,HMHGYLSDPAARLIRARRKTLSIRITQEGNLEIRAPLGMPKGEIEAFLKEKAQWIETHRAKVLAEYA,-2.84
6,HMHHDQQQITAELARIARNGLPGLTADNAIISRLDALNLLINIHDDRGADATPLRGLLPAIADELLRLT,0.056
7,HMHHIDTAWFRGKMREHRLTQEAVGQAIGLERSMVSKIIKGTVSFNARKASAWAQLLRVSESEILERVGI,-2.58
8,HMHHIDYKQLRRINPVAARRAVLDYLESTGGNITKTAQVFSINRSVVYDILKKQASGDLSDRLRIP,-2.04
9,HMHIDQVIRERRLALGLTQEELANKIGVSAPAVSKWEKRVSYPDITLLPALARILGTDVNTLLTFS,-1.08
10,HMHIVQEGDSLYGIARQYRITVEELRSLNALETADVIVPYQKLYV,-0.851
11,HMHKPLRILVYEELRMLIMTGQIKPGTRMMEIDLAESMGVSRTPVREAIRQLEKDNLVTIEPRRGAYVSD,-2.71
12,HMHKYQVGETVYYTSPTFGRAAATGSYIVVKLLPSEGDDYQYRIKSSGEAFERVAKESQLDR,-0.57
13,HMHLIPRESTYEIDGRRFVVDSVNLDFGKVSLQDITFRNATGFPIFRSESIEFMRRLVEISEAQRIAEL,-0.0447
14,HMHLPDNAVSIISELKMTPEEVLELIGKLPHDFLFLPYSQRKKIIVDLIPNKDYKLLMSLIKKFML,-1.62
15,HMHLTRYQYKVETEQEAVGLKELSSVHDLQIKENEATFQADSDAIDEILKTLLLYGVKKLEATPPTLED,-0.211
16,HMHMSLTEKYKELTDLAVSAGVQNLNVREQDGVLYVDGDASGAVKQQLWDTYGKLDPDYTSGDLVLNI,0.279
17,HMHNSPSPVATTILRFLQPVRAFVGDTEDMRTFGPFLREDVAMVPASQAKNLIRSGHAVEINP,-0.0107
18,HMHNSQTIIDNIKRIANEQNISLSKLAVISGLGKNTITSMTAKTNIKIETLTAIAKSLNVSIHDLTGE,-2.64
19,HMHPDHRTATVPDAAAGRRFDAVLAELFPQFSRSKLTTWIKSGEVLLNGEVPRPRDAVVGGETVSLNVVL,-0.554
20,HMHPMVEAYLADLDRALSGSDPREHAETMSAVREHLADAIAPDATAEQVRHALDELGPVEAIAAG,0.0321
21,HMHPQISVEGVLPLKEAVEFVEREIISHAYSRYRATREVARHLGIDPSTVLRKAAKYGITVEPGKN,-1.07
22,HMHPRDREENKYLLLRGERIYEESIGEKRLYVEAALHKYEKALSSYDTGLIDEAKEEFKKFLEEIEEA,-0.271
23,HMHPVEPDDPDQHILFQHLRGQDQVHIDALIRLSGWTADKVSSTLLFMELQGLVKQLPGMYYALE,-0.806
24,HMHQAADFAGFITFNKDGVEQFSFGKYKNQTVVSVLEKDPGYYSWIQNADFPLYTKKILTAIRLAM,-1.06
